The test system of experiment [1] is MD-2 tyrosine phosphorylation. Briefly: LPS-induced MD-2 tyrosine phosphorylation in HEK293 cells (immunoprecipitation, anti-phosphotyrosine immunoblot). The experiment is classed as cell-based, human. To be noted: pretreatment 1-2 h before LPS; HEK293 cells overexpressing TLR4 and MD-2. On the procedure:
24 h later cells were left untreated (lanes 1 and 2) or stimulated with LPS (lanes 3-7). Flag-tagged proteins were immunoprecipitated with an anti-Flag Ab in cell lysates and analyzed by SDS-PAGE and immunoblotted with an anti-phosphotyrosine Ab (top panel), or an anti-Flag Ab (middle and lower panels). (B) HEK293 cells were transiently transfected with Flag-TLR4 and Flag-MD-2 (lanes 1-5). 24 hrs later, cells were pretreated for 2 hrs with herbimycin A at 0.5 μg/ml (lane 3) or 2.5 μg/ml (lane 4), or for 1 hr with 2 μM cytochalasin D (lane 5) prior to stimulation with LPS for 5 mins.
(A) HEK293 cells were transiently transfected with TLR4 and Myc-MD-2 (lanes 1-6). […] Myc-tagged proteins were immunoprecipitated with an anti-Myc Ab in cell lysates, and analyzed by SDS-PAGE and immunoblotted with an anti-phosphotyrosine Ab (top panel), or an anti-Myc Ab (lower panel). […] Cells were left untreated or stimulated with LPS for 6 hours and luciferase activity measured in cell lysates and expressed as fold induction relative to untreated cells.
Tyrosine phosphorylation of numerous proteins is induced upon stimulation with LPS and indeed the LPS receptor, TLR4, is itself tyrosine phosphorylated. […] Proteins were immunoprecipitated from cell extracts with an anti-Flag Ab and analyzed by immunoblotting with an Ab that detects proteins phosphorylated on phosphotyrosine residues. […]
A general note: A western blot detects proteins with antibodies after separation by electrophoresis.

The target in experiment [2] is T1, TLR4 (Homo sapiens, UniProt O00206).
T1 construct: expressed in transfected cells; host or cells: HEK293
Briefly: NF-κB luciferase reporter in HEK293 cells expressing TLR4, LPS stimulation. It counts as cell-based. To be noted: for Ability to activate NF-κB upon LPS stimulation compared to wild-type MD-2: construct transfected into HEK293 TLR4/NF-κB reporter cells, LPS 6 h; for Decrease in NF-κB activity upon LPS stimulation: versus wild-type MD-2. On the procedure:
(A) HEK-293 cells stably transfected with TLR4 and a NF-κB reporter gene were treated with supernatants containing either MD-2 or MD-2s as described in the examples herein. Cells were left untreated or stimulated with LPS for 24 h. Mean relative stimulation of luciferase activity±S.D. for a representative experiment, each performed in triplicate, is shown. (B) HEK-293 cells stably transfected with TLR4 and a NF-κB reporter gene were transiently transfected with plasmids encoding for either MD-2, MD-2s or CD14 as shown. 24 h later, cells were left untreated or stimulated with LPS (250 ng/ml) for 6 h. Mean relative stimulation of luciferase activity±SD for a representative experiment, each performed in triplicate, is shown. (C) and (D) Supernatants were also collected and measured for IL-8 secretion.
(A) HEK293 cells were transiently transfected with plasmids encoding TLR4 and a NF-κB reporter gene in combination with MD-2 and MD-2s as indicated. 24 h later, cells were left untreated or incubated with LPS (250 ng/ml) for 5 h. Mean relative stimulation of luciferase activity±S.D. for a representative experiment from three separate experiments, each performed in triplicate, is shown. (B) HEK-293 cells stably transfected with TLR4 and a NF-κB reporter gene were treated with supernatants containing either MD-2 and MD-2s as depicted and left untreated or incubated with LPS for 24 h. Mean relative stimulation of luciferase activity±S.D. for a representative experiment from three separate experiments, each performed in triplicate, is shown.
HEK293 cells were transiently transfected with the expression vectors noted in combination with constructs encoding the NF-κB- and IL-8-luciferase reporter gene, and either the β-galactosidase gene or the phRL-TK report gene to normalize for transfection efficiency. In all cases, total DNA concentration was kept constant by supplementation with empty vector control. Following overnight incubation, cells were stimulated for 6 hours with 50 ng/ml LPS and then lysed, and luciferase activity was measured as described previously (Ohta et al. (2004) BIOCHEM BIOPHYS RES COMMUN 323, 1103-1108). Data are shown as mean±SD of three or more independent experiments and are reported as a percentage of LPS-stimulated NF-κB and IL-8 promoter activity, or relative luciferase activity.
The requirement for MD-2s in LPS mediated NF-κB activation was assessed. It has been shown that the soluble form of wild-type MD-2 confers LPS responsiveness to cells expressing TLR4; therefore, it was investigated if soluble MD-2s was also bioactive. Culture supernatants were obtained from HEK293 cells transiently expressing control vector, MD-2, or MD-2s, and incubated with HEK293 cells stably transfected with TLR4 and an NF-κB-dependent luciferase reporter gene.
MD-2s was tested to see if it needed to be transiently expressed in TLR4 reporter cells in order to mediate NF-κB activation following LPS stimulation. HEK293 cells stably transfected with TLR4 and an NF-κB-dependent luciferase reporter gene were transiently transfected with plasmids encoding CD14 in combination with either MD-2 or MD-2s, and subsequently treated with LPS.
HEK293 cells were transiently transfected with plasmids encoding CD14, TLR4, and wild-type MD-2 in conjunction with a plasmid encoding the NF-κB-dependent luciferase reporter gene in the presence or absence of a plasmid encoding MD-2s. […] Furthermore, we assessed the inhibitory role of soluble MD-2s following LPS stimulation. HEK293 cells stably transfected with TLR4 and an NF-κB-dependent luciferase reporter gene were incubated with supernatants obtained from HEK293 cells transiently expressing a constant amount of MD-2 with increasing concentrations of MD-2s.
(In a reporter assay the amount or activity of a reporter protein is the signal.)

T1 sequence (O00206 24-839): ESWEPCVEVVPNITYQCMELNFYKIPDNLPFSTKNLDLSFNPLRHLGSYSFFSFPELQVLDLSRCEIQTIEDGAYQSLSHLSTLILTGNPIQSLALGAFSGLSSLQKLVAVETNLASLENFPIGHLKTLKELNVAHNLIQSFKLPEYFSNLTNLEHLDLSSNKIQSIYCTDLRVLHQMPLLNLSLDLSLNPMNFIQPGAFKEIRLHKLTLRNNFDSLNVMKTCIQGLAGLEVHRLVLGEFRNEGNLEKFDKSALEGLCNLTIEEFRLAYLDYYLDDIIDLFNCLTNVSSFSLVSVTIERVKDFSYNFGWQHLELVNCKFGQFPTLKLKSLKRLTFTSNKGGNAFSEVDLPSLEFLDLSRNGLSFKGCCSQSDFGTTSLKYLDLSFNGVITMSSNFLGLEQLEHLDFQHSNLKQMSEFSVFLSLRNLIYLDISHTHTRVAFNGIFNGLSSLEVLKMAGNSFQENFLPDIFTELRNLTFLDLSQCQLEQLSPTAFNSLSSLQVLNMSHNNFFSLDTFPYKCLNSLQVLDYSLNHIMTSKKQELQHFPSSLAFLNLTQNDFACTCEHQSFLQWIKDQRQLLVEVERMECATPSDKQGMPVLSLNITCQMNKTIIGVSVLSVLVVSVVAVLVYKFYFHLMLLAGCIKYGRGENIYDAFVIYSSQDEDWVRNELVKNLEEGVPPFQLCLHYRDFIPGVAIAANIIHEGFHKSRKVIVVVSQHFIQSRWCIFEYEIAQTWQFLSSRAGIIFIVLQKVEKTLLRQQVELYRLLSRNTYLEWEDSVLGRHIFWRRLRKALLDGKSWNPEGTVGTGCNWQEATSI

For `C=C1[C@@H](C)[C@H]2[C@H](Cc3ccccc3)NC(=O)[C@]23[C@H](OC(C)=O)/C=C/[C@@](C)(O)C(=O)[C@@H](C)C/C=C/[C@H]3[C@@H]1O` [cytochalasin D], in experiment [1], the “Effect on LPS-induced MD-2 tyrosine phosphorylation” value is “significantly inhibited”.

`CO[C@H]1[C@@H](OC)C[C@H](C)[C@@H](OC)C2=CC(=O)C=C(NC(=O)/C(C)=C/C=C\[C@H](OC)[C@@H](OC(N)=O)/C(C)=C/[C@@H]1C)C2=O` [herbimycin A]: in experiment [1], the “Effect on LPS-induced MD-2 tyrosine phosphorylation” value is given as “significantly inhibited”.

B1: MD-2-Y22F: human MD-2 with tyrosine 22 mutated to phenylalanine (protein)
chain: MLPFLFFSTLFSSIFTEAQKQFWVCNSSDASISYTYCDKMQYPISINVNPCIELKRSKGLLHIFYIPRRDLKQLYFNLYITVNTMNLPKRKEVICRGSDDDYSFCRALKGETVNTTISFSFKGIKFSKGKYKCVVEAISGSPEEMLFCLEFVILHQPNSN
modifications: Tyrosine to phenylalanine mutation at position 22 of human MD-2
notes: human MD-2 with tyrosine 22 mutated to phenylalanine
Regarding B1, in experiment [2], the “Ability to activate NF-κB upon LPS stimulation compared to wild-type MD-2” value (shortened to “Ability … compared to wild-type MD-2”) is “significantly less potent” and the “Decrease in NF-κB activity upon LPS stimulation” value turned out to be 50%.

B2: MD-2-Y131F: human MD-2 with tyrosine 131 mutated to phenylalanine (protein)
chain: MLPFLFFSTLFSSIFTEAQKQYWVCNSSDASISYTYCDKMQYPISINVNPCIELKRSKGLLHIFYIPRRDLKQLYFNLYITVNTMNLPKRKEVICRGSDDDYSFCRALKGETVNTTISFSFKGIKFSKGKFKCVVEAISGSPEEMLFCLEFVILHQPNSN
modifications: Tyrosine to phenylalanine mutation at position 131 of human MD-2
notes: human MD-2 with tyrosine 131 mutated to phenylalanine
As for B2, in experiment [2], the “Ability … compared to wild-type MD-2” value is given as “significantly less potent” and the “Decrease in NF-κB activity upon LPS stimulation” value stood at 50%.

B3: MD-2-Y22FY131F: human MD-2 double mutant, tyrosines 22 and 131 mutated to phenylalanine (protein)
chain: MLPFLFFSTLFSSIFTEAQKQFWVCNSSDASISYTYCDKMQYPISINVNPCIELKRSKGLLHIFYIPRRDLKQLYFNLYITVNTMNLPKRKEVICRGSDDDYSFCRALKGETVNTTISFSFKGIKFSKGKFKCVVEAISGSPEEMLFCLEFVILHQPNSN
modifications: Tyrosine to phenylalanine mutation at position 22 and 131 of human MD-2
notes: human MD-2 double mutant, tyrosines 22 and 131 mutated to phenylalanine
In the case of B3, the “Ability … compared to wild-type MD-2” value in experiment [2] is listed as “do not activate NF-κB as strongly as wild-type MD-2”.
